According to patent US20260092097A1:

Key:
[1] = target: IL-15 receptor (IL-15RβγC) on 32Dβ cells (human; mouse) (UniProt P14784); experiment: cell-based or functional assay
[2] = target: anti-human IL-15 antibody; experiment: ELISA, anti-human IL-15 antibody as capture and as detection
[3] = target: anti-human IL-15 antibody; experiment: ELISA, anti-human IL-15 antibody as capture and as detection; reference of the table
[4] = target: OVA peptide on H-2Kb (mouse); experiment: value cited from Alam et al. for the monovalent OT1 TCRα/β heterodimer on immobilised OVA peptide/H-2Kb; not measured in this filing; soluble, other
[5] = target: OVA peptide on H-2Kb (mouse); experiment: SPR, BIAcore 2000; biotinylated peptide/H2-Kb/birA on a streptavidin chip; apparent affinity of the bivalent dimer; single-chain; fusion: hIL-15 with hIL-15RαSu/birA (OT1scTCR dimer)
[6] = target: OVA peptide on H-2Kb (mouse); experiment: SPR; the murine single-chain CD8α/β domain of the complex binds the same peptide-MHC, so the value is not that of the TCR alone; single-chain; fusion: hIL-15, in complex with scCD8/hIL-15RαSu/birA (OT1scTCR/scCD8 heterodimer)
[7] = target: OVA (aa257-264) peptide/H-2Kb complex (mouse) (UniProt P01901); experiment: SPR (BIAcore 2000), biotinylated pMHCI on streptavidin chip
Sequence of OVA (aa257-264) peptide/H-2Kb complex (mouse) (P01901 22-305, one chain of several): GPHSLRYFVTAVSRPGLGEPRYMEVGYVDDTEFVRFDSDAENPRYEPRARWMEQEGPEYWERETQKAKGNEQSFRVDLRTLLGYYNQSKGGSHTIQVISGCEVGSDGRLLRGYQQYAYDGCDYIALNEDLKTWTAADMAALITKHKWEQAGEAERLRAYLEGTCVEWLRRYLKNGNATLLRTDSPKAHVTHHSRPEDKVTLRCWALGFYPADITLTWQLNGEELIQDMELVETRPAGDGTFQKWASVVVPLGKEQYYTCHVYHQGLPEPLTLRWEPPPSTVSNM

Sequence of IL-15 receptor (IL-15RβγC) on 32Dβ cells (human; mouse) (P14784 27-551, chain 1 of 2): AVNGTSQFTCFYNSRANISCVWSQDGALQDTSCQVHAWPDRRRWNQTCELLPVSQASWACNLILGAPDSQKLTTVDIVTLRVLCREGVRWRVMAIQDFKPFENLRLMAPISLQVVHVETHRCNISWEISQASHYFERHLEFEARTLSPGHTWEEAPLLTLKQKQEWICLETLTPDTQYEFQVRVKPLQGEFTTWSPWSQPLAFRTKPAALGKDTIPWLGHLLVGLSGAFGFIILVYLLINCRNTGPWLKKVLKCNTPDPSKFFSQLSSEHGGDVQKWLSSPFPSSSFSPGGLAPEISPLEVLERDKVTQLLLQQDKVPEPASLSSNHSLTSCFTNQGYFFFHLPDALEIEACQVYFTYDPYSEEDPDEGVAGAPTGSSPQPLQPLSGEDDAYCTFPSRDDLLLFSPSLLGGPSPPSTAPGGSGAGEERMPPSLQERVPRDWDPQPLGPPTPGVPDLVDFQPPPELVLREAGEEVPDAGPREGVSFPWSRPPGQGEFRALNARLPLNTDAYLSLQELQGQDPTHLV
Sequence of IL-15 receptor (IL-15RβγC) on 32Dβ cells (human; mouse) (P34902 23-369, chain 2 of 2, further chain): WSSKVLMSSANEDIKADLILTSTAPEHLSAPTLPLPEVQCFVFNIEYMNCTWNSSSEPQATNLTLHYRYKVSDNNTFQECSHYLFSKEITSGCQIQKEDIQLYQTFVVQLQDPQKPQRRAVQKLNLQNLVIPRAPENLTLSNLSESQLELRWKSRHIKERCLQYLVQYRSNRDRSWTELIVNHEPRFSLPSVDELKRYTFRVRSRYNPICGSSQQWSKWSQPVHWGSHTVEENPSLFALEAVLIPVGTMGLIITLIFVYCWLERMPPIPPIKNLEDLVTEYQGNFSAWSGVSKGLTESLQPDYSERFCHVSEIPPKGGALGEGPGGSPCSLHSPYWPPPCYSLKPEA

c264scTCR/hIL-15 fusion protein (from UniProt P40933 49-162)
32Dβ cell proliferation, half-maximal stimulation (EC50) [1]: 0.0003 µM

c264scTCR/huIL15N72D fusion protein
EC50 (read off the curve) [2]: 0.0002 µM
Relative activity (%) [3]: 100%

OT1scTCR
Kd [4]: 6 µM
Kd [5]: 30 µM
Kd [6]: 2.6 µM

c264scTCR dimer: c264scTCR/hIL-15:c264scTCR/hIL-15RαSu/birA complex (from UniProt P40933 49-162; Q13261 31-95)
32Dβ cell proliferation, half-maximal stimulation (EC50) [1]: 0.0003 µM

OT1scTCR dimer: OT1scTCR/hIL-15:OT1scTCR/hIL-15RαSu/birA complex (from UniProt P40933 49-162; Q13261 31-95)
Kd [7]: 30 µM

OT1scTCR/scCD8 heterodimer: OT1scTCR/hIL-15:scCD8/hIL-15RαSu/birA complex (from UniProt P40933 49-162; P01731 28-196; P10300 22-175; Q13261 31-95)
EC50 (read off the curve) (anti-murine CD8α mAb): 0.0005 µM
Kd [7]: 2.6 µM
